Experimental data as given in PMC9722767.

tested on: T1, MsmR1 (Paenibacillus polymyxa SC2-M1 (SC2 derivative)), ORF:0fff1571; experiment: EMSA; details: Chemiluminescent EMSA kit (Beyotime); labeled probe about 0.4 uM, competitor about 4 uM, protein gradient; buffer, salt, pH and temperature not stated
T1 sequence: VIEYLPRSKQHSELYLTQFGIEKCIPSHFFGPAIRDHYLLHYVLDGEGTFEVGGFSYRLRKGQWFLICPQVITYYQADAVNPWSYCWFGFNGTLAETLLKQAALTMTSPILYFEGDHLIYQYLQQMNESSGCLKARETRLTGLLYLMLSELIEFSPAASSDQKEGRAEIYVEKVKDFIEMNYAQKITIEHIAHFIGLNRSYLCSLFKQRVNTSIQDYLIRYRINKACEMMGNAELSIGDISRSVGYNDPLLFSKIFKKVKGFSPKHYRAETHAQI

binding, binds:
ACCATTTCCCGGGCAATCGGCTGCCGGGTGCGAATGGAATCGCCCAAGTCCCCTCGTGCCAGTTCACTTAGATAGGTCCCATATTGCTGTAGCCACGGCTTATCCAGCCCTAATTGCTCACGCAGCGCCTGTTTGGACTGTTCCGTGGCCTTGTCCCCGAGTATCGTTTCTGCCGGATCACCGGGAATAGCATGAATAATCGAAAACACGATAAGCGTCATCCCCA (double strand) [oppC3 upstream fragment]
ATATGATTTCTGTAGAACCTACTGCTATATTGTTGGATCTTATCAAGCTTTACACCATATGAACTTAGTTGACGCCTGCTACATAAAGATTCTTCTAAGTGCCTTTTTGGTGTGGATCTCTGATGATTATTATCTAAGAGAGGGGTTATTTTTCCCAA (double strand) [msmR1 promoter]
CAGAGGAAATGCATGTCCGTATTATCGGAGACAACACGATTTCCCGCAAAAATCATGCGGTCATTGTGTATGATCCGAAGAAACGCAACTTTTACTTGCTGCCAGGCGATTCGTCAGGCTTGGCGTATCACAATAACGAGGCGGTATATTCACCAGTGGAGCTGGCTGCTTATGACGTGATTCAGCTCGGGCGCAGCAAATTTATCTTTATTCCGCTGTGCGGCGCTCATTTCGAGTGGGA (double strand) [pppL upstream fragment]
CAGCAACGCACCTCAAGAGATTGCAGGTGTGAAGGTAGACAAAGTACTGGACTACTCGCAAGGCTTGGACGGACTTCCGCAGGAAAACGTACTCAAGTTTTTATTGGAGGACGGTTCTTGGTTCTGCCTGCGTCCTTCGGGCACAGAGCCTAAAATCAAAGTATACTTTGCAGTACGTGGTTCCTC (double strand) [PPSC2_23180 upstream fragment]
CCGATTCATCTCATTTACGCATGGATATGTTGAGAAAAAGGAAATGCTCATAGCTAGAAAACTTTATACAATGAAAGAGAAATAAGCACTGTGAAATTCGACTTTTGATCATGGATTTCATATAATGTGAATTGCTTAAATTAGAGATTTAAC (double strand) [sucA upstream fragment]
CGGAACAAATGGATCTTCGCAAAGAATACCTTCAAATCTTTCGAGGCTCTATCAAAAGCATACTTTTGAATGCTACGATTTATGATCCGAATGGAGATGATGTTACTCCTGAAAAATTAAGAAAAGAACAGGCTCAAATCGTTAAGCCATGAATTTAATTTTGTCT (double strand) [ydfp upstream fragment]
GGACGAATCGCACATGAGGCTTTCCCCAACAAACGTGACAGTTTTAGAGCCTTGGGCAATTATGTAAAGAGAGGGCATGTTGAGGGTATGCGTCGGTTTCGACTCCGCGGATGCGCGCCTGAAACAAAGCTCTGGAATCGCTGTTTGGTGTAAACCATCCTTAGGCGTATGCCGTGCTATTTGCTTAGCTAACTCCGTAATGAGTTGGTTCAAACTTGTTCACCAATCCTTTTTCATTTAATCTGATATGAATATTGTAATTCAAACCGGACAGGAATAGGCAAGGAACGCGTATGAAT (double strand) [sdr3 upstream fragment]
TGATCTGGTAACACCGAACTTATTCGAGGCTTCACAGCTGGCGAAGAAAGGACCGATCACGACACTGGAGCAGATGCAGGAAGCGGCTGCTATTATCCACGAGCGTGGTGCTAAGCATGTGCTGATCAAGGACCGTGGCAAAATTCGCGCAGGTAAAGCGATGGATCTGCTGTATGACGGAATCACTTTTGACTGGTTTGAAGCGGATGTTGTACAAACCAACTTTACCCACGGTGCAGGCTGTACCACTTCGGCTGCGGTAACGGCTGGTTTGGCACAAGGGCTGACTGTAC (double strand) [pepF upstream fragment]
